According to paper doi:10.1101/2020.08.10.242008:

Molecular target: T1, Full-length wild-type rat TRPV2 (transient receptor potential vanilloid 2) (rat), Q9WUD2
T1 chain: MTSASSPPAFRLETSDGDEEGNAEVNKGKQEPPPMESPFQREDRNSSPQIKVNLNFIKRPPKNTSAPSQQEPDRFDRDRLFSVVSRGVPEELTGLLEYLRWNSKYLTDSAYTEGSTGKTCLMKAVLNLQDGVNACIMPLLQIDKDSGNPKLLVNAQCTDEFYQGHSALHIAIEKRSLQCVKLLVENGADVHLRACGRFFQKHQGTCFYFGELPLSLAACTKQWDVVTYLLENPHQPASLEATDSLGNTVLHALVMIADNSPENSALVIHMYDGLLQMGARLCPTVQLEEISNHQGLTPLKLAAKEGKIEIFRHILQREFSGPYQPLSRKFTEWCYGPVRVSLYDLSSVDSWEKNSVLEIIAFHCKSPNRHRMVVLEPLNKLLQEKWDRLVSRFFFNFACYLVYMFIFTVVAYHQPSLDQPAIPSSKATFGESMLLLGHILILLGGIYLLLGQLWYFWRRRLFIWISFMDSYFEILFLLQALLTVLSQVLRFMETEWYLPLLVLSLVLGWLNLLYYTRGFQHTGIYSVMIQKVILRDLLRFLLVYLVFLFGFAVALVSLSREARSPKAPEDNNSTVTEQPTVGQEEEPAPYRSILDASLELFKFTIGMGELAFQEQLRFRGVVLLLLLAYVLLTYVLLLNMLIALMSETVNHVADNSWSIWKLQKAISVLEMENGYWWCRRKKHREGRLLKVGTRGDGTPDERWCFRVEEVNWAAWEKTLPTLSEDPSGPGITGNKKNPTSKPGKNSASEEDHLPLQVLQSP
Test: cryo-EM structure
Conditions: remark: other sources report otherwise

B1: Full-length wild-type rat TRPV2 (transient receptor potential vanilloid 2), Q9WUD2 1-761 (natural protein)
chain: T1 chain
  stoichiometry N: 4
